Here are results for one molecule from patent US20240084023A1 (NGM BIOPHARMACEUTICALS, published 2024).

Positions count from the first letter of the chain named.

Assay [1] addresses T1, GCGR extracellular domain alanine mutant H45A (human, UniProt P47871 26-136, limits assumed).
T1 construct: expressed in 293XP cells
T1 chain: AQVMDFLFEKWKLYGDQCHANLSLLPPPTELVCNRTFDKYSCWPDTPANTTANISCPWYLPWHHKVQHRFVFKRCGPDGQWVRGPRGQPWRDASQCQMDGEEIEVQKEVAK
The experiment in a line: flow cytometry on transfected 293XP cells. As for the experimental part: (§1) To assist in gathering information on the GCGR epitope that the 6B5 binning group bound to, “alanine scanning mutagenesis” was undertaken. These alanine scanning mutagenesis platform is a technique used for mapping both linear and conformational antigen epitopes by evaluating the effects of point mutations across a target protein. Single residues in a target protein are replaced by alanine one at a time to construct a mutant library. Each variant is assayed for its ability to bind to an antibody of interest. […] Amino acids across the extracellular domain of GCGR were mutated to alanine and the anti-GCGR antibody Hz6B5 was tested for binding to the alanine mutants.
(§2) The wild-type GCGR extracellular domain and the alanine mutants were each transfected into 293XP cells and incubated for 24 hours. Antibody Hz6B5 was incubated with the transfected cells for 30 minutes at 4° C. After washing with PBS/1% BSA/0.1% azide, the cells were incubated with a labeled anti-mouse Fc antibody (Jackson Immunoresearch) for 30 minutes at 4° C. After washing with PBS/1% BSA/0.1% azide, the cells were analyzed using a flow cytometer BD (FACSCalibur instrument) and cytometric analytical software (FlowJo). A serum sample from a mouse immunized with human GCGR was used as positive control to confirm expression of the alanine mutants.

Assay [2] concerns the target T2, GCGR extracellular domain alanine mutant Y84A (human, UniProt P47871 26-136, limits assumed).
T2 construct: expressed in 293XP cells
T2 chain: T1 chain with A20H, Y59A
Briefly: flow cytometry on transfected 293XP cells. As for the experimental part: as §1, §2

B1: anti-GCGR antibody Hz6B5 (antibody, V domains shown)
VH: QVQLVQSGAEVKKPGSSVKVSCKASGFTFTNHWLGWVRQAPGQGLEWIGDIYPGGYYINYNEKFKGRVTITADESTSTAYMELSSLRSEDTAVYYCARHTNYGSDYWGQGTTVTVSS
VL: DVVMTQSPLSLPVTLGQPASISCRSSQSIVDSYGNTFLEWYQQRPGQSPRLLIYKVSNRLSGVPDRFSGSGSGTDFTLKISRVEAEDVGVYYCFQGSHVPWTFGQGTKLEIK
notes: Humanized 6B5
With B1, the figures for the “% positive cells” value in assay [1] and in assay [2] were 81.3% and 63.4%, respectively.
